Experimental data reported in the supplement of paper PMC11875167.

assay: observed amide hydrogen exchange rate constant kobs (stretched exponential fit, FD-normalized) (s^-1); higher = faster H/D exchange (less protection); conditions: pH 3 (pH read); temperature: 20 °C; D2O: 88%
Summary of the method: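 Jurkat tryptic peptides (LysC/trypsin, carbamidomethylated cysteines) were labeled in 88% D2O, pHread 3, 20 °C, quenched with 0.23% formic acid at 13 times from 18 to 93,600 s, in processing triplicates. MS1 uptake (Q-Exactive HF, HDExaminer, no back-exchange correction) was normalized to full-deuteration controls (24 h, 37 °C). Curves were fitted to a stretched single exponential with β = 0.8. The observed exchange rate constant kobs is the fitted rate.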

In order of falling “observed amide hydrogen exchange rate constant kobs” value:
1. LGIHEDSTNR  0.00441
2. STAGDTHLGGEDFDNR  0.00417
3. IREEYPDR  0.00399
4. RHLTGEFEK  0.00392
5. APEPHVEEDDDDELDSK  0.0038
6. AGAHLQGGAK  0.00372
7. TLHPDLGTDK  0.00356
8. LFQECCPHSTDR  0.00299
9. IDEPLEGSEDR  0.00298
10. GRGARGGKAEDK  0.00275
11. HAVSEGTK  0.00263
12. EGLELPEDEEEK  0.00262
13. KLEAAEER  0.00257
14. TIGGGDDSFNTFFSETGAGK  0.00246
15. IEEELGSK  0.00244
16. AQQELEEQTRR  0.00236
17. CAADLGLNK  0.00234
18. EQFLDGDGWTSR  0.00231
19. GEGQLGPAER  0.0023
20. EDQTEYLEER  0.00222
21. EALQDVEDENQ  0.0022
22. MGANSLER  0.00212
23. DSYVGDEAQSK  0.00207
24. EVFEDAAEIR  0.002
25. GNFGGSFAGSFGGAGGHAPGVAR  0.00196
26. DLSHIGDAVVISCAK  0.00192
27. IGAEVYHNLK  0.0019
28. DYFGAHTYELLAK  0.00186
29. GEENLMDAQVK  0.00185
30. HLQLAIRNDEELNK  0.00184
31. AIVAIENPADVSVISSR  0.00184
32. EAFSLFDK  0.0018
33. DNLTLWTSDMQGDGEEQNK  0.00177
34. YPIEHGIITNWDDMEK  0.00172
35. TAFQEALDAAGDK  0.00172
36. EGIPPDQQR  0.00171
37. VMLGETNPADSKPGTIR  0.00166
38. MFVLDEADEMLSR  0.00164
39. DEFEGLFK  0.00163
40. VIPELNGK  0.00159
41. TAFDEAIAELDTLNEDSYK  0.00156
42. SSTPEEVK  0.00152
43. FSELTAEK  0.00148
44. GADFLVTEVENGGSLGSK  0.00147
45. QQISLATQMVR  0.00147
46. AYHEQLSVAEITNACFEPANQMVK  0.00146
47. SVVLMSHLGRPDGVPMPDK  0.00138
48. QHYIDLK  0.00137
49. VHIEIGPDGR  0.00136
50. MFVGGLSWDTSK  0.00136
51. HLEINPDHPIVETLR  0.00133
52. GVVDSEDLPLNISR  0.0013
53. TGTAEMSSILEER  0.00127
54. VDQIIMAK  0.00126
55. HIYYITGETK  0.00121
56. NLLSVAYK  0.00119
57. QDFVQHFSQIVR  0.00117
58. VIHDNFGIVEGLMTTVHAITATQK  0.00116
59. TLGILGLGR  0.00116
60. GTLDPVEK  0.00116
61. VIGSGCNLDSAR  0.00116
62. FLPLFDR  0.00116
63. DYNVTANSK  0.00116
64. EIVLADVIDNDSWR  0.00114
65. VEVQYK  0.00112
66. LVILANNCPALR  0.00112
67. EWFLQAAK  0.00111
68. VLSSIEQK  0.00109
69. DLADELALVDVIEDK  0.00109
70. DLSLEEIQK  0.00108
71. GTGIVSAPVPK  0.00104
72. QIPQATASMK  0.00103
73. NIEDVIAQGIGK  0.00103
74. ATFMVGSYGPRPEEYEFLTPVEEAPK  0.00103
75. ANTFVAELK  0.00102
76. EILVGDVGQTVDDPYATFVK  0.00102
77. VAQLEQVYIR  0.001
78. EIQTAVR  0.001
79. SADTLWGIQK  0.000987
80. YLIPNATQPESK  0.000945
81. IGFPWSEIR  0.000936
82. FDLMYAK  0.000933
83. VLATVTKPVGGDK  0.000932
84. LRQPFFQK  0.00093
85. YLPELMAEK  0.000924
86. IMATPEQVGK  0.000917
87. YISPDQLADLYK  0.000916
88. SSFYVNGLTLGGQK  0.00091
89. AIPQLQGYLR  0.00091
90. ELSDFISYLQR  0.000898
91. EISLWFKPEELVDYK  0.000892
92. LVPGGGATEIELAK  0.00089
93. NNQFQALLQYADPVSAQHAK  0.000863
94. LLLPGELAK  0.000859
95. EGGLGPLNIPLLADVTR  0.000844
96. PYVEEGLHPQIIIR  0.000843
97. VAVATPAK  0.000839
98. IGPLGLSPK  0.000838
99. VEGTEPTTAFNLFVGNLNFNK  0.000826
100. FLVYVANFDEK  0.000821
101. LQAVEVVITHLAPGTK  0.000819
102. GLTSVINQK  0.000815
103. VLEQLTGQTPVFSK  0.00081
104. IQLINNMLDK  0.00081
105. TVTNAVVTVPAYFNDSQR  0.000806
106. AGNLGGGVVTIER  0.000802
107. VPSLVGSFIR  0.000779
108. NQVAMNPTNTVFDAK  0.000774
109. IGLFGGAGVGK  0.000762
110. MVVESAYEVIK  0.000759
111. SSGPTSLFAVTVAPPGAR  0.000757
112. EFEPLLNWMK  0.000734
113. SINPDEAVAYGAAVQAAILSGDK  0.000731
114. VFEGNRPTNSIVFTK  0.000712
115. LMDVGLIAIR  0.000707
116. LVLVGDGGTGK  0.000679
117. GFGFILFK  0.000667
118. FVSISDLLVPK  0.000665
119. LVPVGYGIK  0.000648
120. DLPLLLFR  0.000629
121. DRPFFPGLVK  0.000625
122. TSFFQALGITTK  0.00062
123. TLAQLNPESSLFIIASK  0.00061
124. GLVGEIIK  0.000569
125. LLLPWLEAR  0.00056
126. TFFSFPAVVAPFK  0.000546
127. FLILPDMLK  0.000536
128. ASILNTWISLK  0.000492
129. NVTLPAVFK  0.000481
130. IYVLLR  0.000454
131. IIWQFIK  0.000404
